Assay results reported in paper PMC5774706, “Investigation of the proton relay system operative in human cystosolic aminopeptidase P” (PLoS ONE, 2018).
Residue numbers refer to the chain shown, from its start. Numbers in names are those of the source.

B1: human cytosolic aminopeptidase P, wild-type (enzyme, UniProt Q9NQW7 1-623, looked up)
chain: MPPKVTSELLRQLRQAMRNSEYVTEPIQAYIIPSGDAHQSEYIAPCDCRRAFVSGFDGSAGTAIITEEHAAMWTDGRYFLQAAKQMDSNWTLMKMGLKDTPTQEDWLVSVLPEGSRVGVDPLIIPTDYWKKMAKVLRSAGHHLIPVKENLVDKIWTDRPERPCKPLLTLGLDYTGISWKDKVADLRLKMAERNVMWFVVTALDEIAWLFNLRGSDVEHNPVFFSYAIIGLETIMLFIDGDRIDAPSVKEHLLLDLGLEAEYRIQVHPYKSILSELKALCADLSPREKVWVSDKASYAVSETIPKDHRCCMPYTPICIAKAVKNSAESEGMRRAHIKDAVALCELFNWLEKEVPKGGVTEISAADKAEEFRRQQADFVDLSFPTISSTGPNGAIIHYAPVPETNRTLSLDEVYLIDSGAQYKDGTTDVTRTMHFGTPTAYEKECFTYVLKGHIAVSAAVFPTGTKGHLLDSFARSALWDSGLDYLHGTGHGVGSFLNVHEGPCGISYKTFSDEPLEAGMIVTDEPGYYEDGAFGIRIENVVLVVPVKTKYNFNNRGSLTFEPLTLVPIQTKMIDVDSLTDKECDWLNNYHLTCRDVIGKELQKQGRQEALEWLIRETQPISKQH
notes: human cytosolic aminopeptidase P (hcAMPP), encoded by XPNPEP1, residues M1 to H623, cloned into pET-28a (NdeI/HindIII); The His-tag is thrombin cleavable; also called hcAMPP; wild-type hcAMPP; source: E. coli Rosetta (DE3), purified (Ni2+ chelating column)
B2: human cytosolic aminopeptidase P, R535A mutant (enzyme, UniProt Q9NQW7 1-623, looked up)
chain: B1 chain with R535A
notes: human cytosolic aminopeptidase P (hcAMPP), encoded by XPNPEP1, residues M1 to H623, with R535A made by QuikChange mutagenesis of pET28a-hcAMPP; The His-tag is thrombin cleavable; no cleavage is described; also called R535A hcAMPP; Arg535Ala hcAMPP; source: E. coli Rosetta (DE3), purified (Ni2+ chelating column)
B3: human cytosolic aminopeptidase P, Y527F mutant (enzyme, UniProt Q9NQW7 1-623, looked up)
chain: B1 chain with Y527F
notes: human cytosolic aminopeptidase P (hcAMPP), encoded by XPNPEP1, residues M1 to H623, with Y527F made by QuikChange mutagenesis of pET28a-hcAMPP; The His-tag is thrombin cleavable; no cleavage is described; also called Y527F hcAMPP; Tyr527Phe hcAMPP; source: E. coli Rosetta (DE3), purified (Ni2+ chelating column)

Assays:
[1] = biological target: the molecule itself; assay: AUC; sedimentation velocity, 40000 rpm, 20°C, 10 mM Tris-HCl, absorbance at 280 nm, c(s) by Sedfit; protein at 1 mg/mL; dimer to monomers
[2] = biological target: the molecule itself; assay: AUC; sedimentation velocity, 40000 rpm, 20°C, 10 mM Tris-HCl, absorbance at 280 nm, c(s) by Sedfit; protein at 0.1 mg/mL; dimer to monomers
[3] = biological target: the molecule itself; assay: AUC; sedimentation velocity, 40000 rpm, 20°C, 10 mM Tris-HCl, absorbance at 280 nm, c(s) by Sedfit; protein at 0.1 mg/mL with 10 mM guanidine hydrochloride; dimer to monomers

Protein	stoichiometry N [1]	dimer:monomer ratio (printed as monomer:dimer 1:0.67) [2]	dimer:monomer ratio (printed as monomer:dimer 1:1.5) [3]	dimer:monomer ratio [2]	dimer:monomer ratio [1]
B1	2				
B2	2	0.67	1.5		
B3	2			1.8	3.4
